What was measured:
Assay type in all cases: biochemical
[1] = HTP-analysis of yeast culture supernatants, no challenge (MUGal hydrolysis); details: activity of the variant/activity of WT GLA (SEQ ID NO: 5), yeast supernatant
Procedure, shortened: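 Activity read as 4-methylumbelliferyl α-D-galactopyranoside hydrolysis: fluorescence (355/448 nm) after sodium carbonate stop, following 30-180 min at 37° C with 2 mM MUGal stock at pH 4.6–4.8. Enzyme source is unchallenged culture supernatant of INVSc1 yeast expressing GLA variants, grown 66-84 h at 30° C.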

[2] = HTP-analysis of supernatants pretreated with acid (MUGal hydrolysis); details: challenge at pH 4.2; activity of the variant/activity of WT GLA (SEQ ID NO: 5); yeast supernatant
Procedure, shortened: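 Supernatants from INVSc1 yeast secreting GLA variants were challenged at 37° C. for 1-3 h in McIlvaine buffer at pH 3.3-4.3. Residual activity was then measured on 4 mM MUGal substrate stock at pH 4.8 with citrate buffer pH 4.3, over 30-180 min at 37° C. Reactions were quenched with sodium carbonate and read by fluorescence (Ex 355/Em 448 nm).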

[3] = HTP-analysis of supernatants pretreated with base (MUGal hydrolysis); details: challenge at pH 7.1; activity of the variant/activity of WT GLA (SEQ ID NO: 5); yeast supernatant
Procedure, shortened: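 Fluorescence of released 4-MU (Ex 355 nm, Em 448 nm) after carbonate quench reports MUGal hydrolysis by GLA variants secreted from INVSc1 yeast. Before the acidic (pH 4.3-4.8) 30-180 min reaction at 37° C, supernatants had been pre-incubated at pH 7.0-9.7 for 1-18 h at 37° C.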

Molecule | Relative Activity of GLA Variants After No Challenge (NC) [1] | Relative Activity of GLA Variants After Challenge at pH 4.2 [2] | Relative Activity of GLA Variants After Challenge at pH 7.1 [3]
110 (protein, Synthetic Polypeptide sequence of Variant No. 110 of mature Human GLA) LDNGLARTPTMGWLHWERFMCNLDCQEEPDSCISEKLFMEMAELMVSEGWKDAGYEYLCIDDCWMAPQRDSEGRLQADPQRFPHGIRQLANYVHSKGLKLGIYADVGNKTCAGFPGSFGYYDIDAQTFADWGVDLLKFDGCYCDSLENLADGYKHMSLALNRTGRSIVYSCEWPLYMWPFQKPNYTEIRQYCNHWRNFADIDDSWKSIKSILDWTSFNQERIVDVAGPGGWNDPDMLVIGNFGLSWNQQVTQMALWAIMAAPLFMSNDLRHISPQAKALLQDKDVIAINQDPLGKQGYQLRQGDNFEVWERPLSGLAWAVAMINRQEIGGPRSYTIAVASLGKGVACNPACFITQLLPVKRKLGFYEWTSRLRSHINPTGTVLLQLENTMQMSKDLDL | +++ (+++ = >2.5 relative activity over WT GLA (SEQ ID NO: 5)) | ++ (++ = >1.5 to 2.5 relative activity over WT GLA (SEQ ID NO: 5)) | +++ (+++ = >2.5 relative activity over WT GLA (SEQ ID NO: 5))
116 (protein, Synthetic Polypeptide sequence of Variant No. 116 of mature Human GLA) LDNGLARTPTMGWLHWERFMCNLDCQEEPDSCISEKLFMEMAELMVSEGWKDAGYEYLCIDDCWMAPQRDSEGRLQADPQRFPHGIRQLANYVHSKGLKLGIYADVGNKTCAGFPGSFGYYDIDAQTFADWGVDLLKFDGCYCDSLENLADGYKHMSLALNRTGRSIVYSCEWPLYMWPFQKPNYTEIRQYCNHWRNFADIDDSWKSIKSILDWTSFNQERIVDVAGPGGWNDPDMLVIGNFGLSWNQQVTQMALWAIMAAPLFMSNDLRHISPQAKALLQDKDVIAINQDPLGKQGYQLRQGDNFEVWERPLSGLAWAVAMINRQEIGGPRSYTIAVASLGKGVACNPACFITQLLPVKRKLGFYEWTSRLRSHINPTGTVLLQLENTMQMSKDLLE | ++ (++ = >1.5 to 2.5 relative activity over WT GLA (SEQ ID NO: 5)) | ++ (++ = >1.5 to 2.5 relative activity over WT GLA (SEQ ID NO: 5)) | ++ (++ = >1.5 to 2.5 relative activity over WT GLA (SEQ ID NO: 5))
115 (protein, Synthetic Polypeptide sequence of Variant No. 115 of mature Human GLA) LDNGLARTPTMGWLHWERFMCNLDCQEEPDSCISEKLFMEMAELMVSEGWKDAGYEYLCIDDCWMAPQRDSEGRLQADPQRFPHGIRQLANYVHSKGLKLGIYADVGNKTCAGFPGSFGYYDIDAQTFADWGVDLLKFDGCYCDSLENLADGYKHMSLALNRTGRSIVYSCEWPLYMWPFQKPNYTEIRQYCNHWRNFADIDDSWKSIKSILDWTSFNQERIVDVAGPGGWNDPDMLVIGNFGLSWNQQVTQMALWAIMAAPLFMSNDLRHISPQAKALLQDKDVIAINQDPLGKQGYQLRQGDNFEVWERPLSGLAWAVAMINRQEIGGPRSYTIAVASLGKGVACNPACFITQLLPVKRKLGFYEWTSRLRSHINPTGTVLLQLENTMQMSKDLTL | ++ (++ = >1.5 to 2.5 relative activity over WT GLA (SEQ ID NO: 5)) | ++ (++ = >1.5 to 2.5 relative activity over WT GLA (SEQ ID NO: 5)) | +++ (+++ = >2.5 relative activity over WT GLA (SEQ ID NO: 5))
34 (protein, Synthetic Polypeptide sequence of Variant No. 34 of mature Human GLA) LDNGLARTPTMGWLHWERFMCNLDCQEEPDSCISEKLFMEMAELMVSEGWKDAGYEYLCIDDCWMAPQRDSEGRLQADPQRFPHGIRQLANYVHSKGLKLGIYADVGNKTCAGFPGSFGYYDIDAQTFADWGVDLLKFDGCYCDSLENLADGYKHMSLALNRTGRSIVYSCEWPLYMWPFQKPNYTEIRQYCNHWRNFADIDDSWKSIKSILDWTSFNQERIVDVAGPGGWNDPDMLVIGNFGLSWNQQVTQMALWAIMAAPLFMSNDLRHISPQAKALLQDKDVIAINQDPLGKQGYQLRQGDNFEVWERPLSGLAWAVAMINRQEIGGPRSYTIPVASLGKGVACNPACFITQLLPVKRKLGFYEWTSRLRSHINPTGTVLLQLENTMQMSKDLLL | + (+ = 0.5 to 1.5 relative activity over WT GLA (SEQ ID NO: 5)) | ++ (++ = >1.5 to 2.5 relative activity over WT GLA (SEQ ID NO: 5)) | ++ (++ = >1.5 to 2.5 relative activity over WT GLA (SEQ ID NO: 5))
114 (protein, Synthetic Polypeptide sequence of Variant No. 114 of mature Human GLA) LDNGLARTPTMGWLHWERFMCNLDCQEEPDSCISEKLFMEMAELMVSEGWKDAGYEYLCIDDCWMAPQRDSEGRLQADPQRFPHGIRQLANYVHSKGLKLGIYADVGNKTCAGFPGSFGYYDIDAQTFADWGVDLLKFDGCYCDSLENLADGYKHMSLALNRTGRSIVYSCEWPLYMWPFQKPNYTEIRQYCNHWRNFADIDDSWKSIKSILDWTSFNQERIVDVAGPGGWNDPDMLVIGNFGLSWNQQVTQMALWAIMAAPLFMSNDLRHISPQAKALLQDKDVIAINQDPLGKQGYQLRQGDNFEVWERPLSGLAWAVAMINRQEIGGPRSYTIAVASLGKGVACNPACFITQLLPVKRKLGFYEWTSRLRSHINPTGTVLLQLENTMQMSKDLRL | ++ (++ = >1.5 to 2.5 relative activity over WT GLA (SEQ ID NO: 5)) | ++ (++ = >1.5 to 2.5 relative activity over WT GLA (SEQ ID NO: 5)) | ++ (++ = >1.5 to 2.5 relative activity over WT GLA (SEQ ID NO: 5))
112 (protein, Synthetic Polypeptide sequence of Variant No. 112 of mature Human GLA) LDNGLARTPTMGWLHWERFMCNLDCQEEPDSCISEKLFMEMAELMVSEGWKDAGYEYLCIDDCWMAPQRDSEGRLQADPQRFPHGIRQLANYVHSKGLKLGIYADVGNKTCAGFPGSFGYYDIDAQTFADWGVDLLKFDGCYCDSLENLADGYKHMSLALNRTGRSIVYSCEWPLYMWPFQKPNYTEIRQYCNHWRNFADIDDSWKSIKSILDWTSFNQERIVDVAGPGGWNDPDMLVIGNFGLSWNQQVTQMALWAIMAAPLFMSNDLRHISPQAKALLQDKDVIAINQDPLGKQGYQLRQGDNFEVWERPLSGLAWAVAMINRQEIGGPRSYTIAVASLGKGVACNPACFITQLLPVKRKLGFYEWTSRLRSHINPTGTVLLQLENTMQMSKDLIL | + (+ = 0.5 to 1.5 relative activity over WT GLA (SEQ ID NO: 5)) | ++ (++ = >1.5 to 2.5 relative activity over WT GLA (SEQ ID NO: 5)) | + (+ = 0.5 to 1.5 relative activity over WT GLA (SEQ ID NO: 5))
111 (protein, Synthetic Polypeptide sequence of Variant No. 111 of mature Human GLA) LDNGLARTPTMGWLHWERFMCNLDCQEEPDSCISEKLFMEMAELMVSEGWKDAGYEYLCIDDCWMAPQRDSEGRLQADPQRFPHGIRQLANYVHSKGLKLGIYADVGNKTCAGFPGSFGYYDIDAQTFADWGVDLLKFDGCYCDSLENLADGYKHMSLALNRTGRSIVYSCEWPLYMWPFQKPNYTEIRQYCNHWRNFADIDDSWKSIKSILDWTSFNQERIVDVAGPGGWNDPDMLVIGNFGLSWNQQVTQMALWAIMAAPLFMSNDLRHISPQAKALLQDKDVIAINQDPLGKQGYQLRQGDNFEVWERPLSGLAWAVAMINRQEIGGPRSYTIAVASLGKGVACNPACFITQLLPVKRKLGFYEWTSRLRSHINPTGTVLLQLENTMQMSKDLHL | ++ (++ = >1.5 to 2.5 relative activity over WT GLA (SEQ ID NO: 5)) | ++ (++ = >1.5 to 2.5 relative activity over WT GLA (SEQ ID NO: 5)) | ++ (++ = >1.5 to 2.5 relative activity over WT GLA (SEQ ID NO: 5))
113 (protein, Synthetic Polypeptide sequence of Variant No. 113 of mature Human GLA) LDNGLARTPTMGWLHWERFMCNLDCQEEPDSCISEKLFMEMAELMVSEGWKDAGYEYLCIDDCWMAPQRDSEGRLQADPQRFPHGIRQLANYVHSKGLKLGIYADVGNKTCAGFPGSFGYYDIDAQTFADWGVDLLKFDGCYCDSLENLADGYKHMSLALNRTGRSIVYSCEWPLYMWPFQKPNYTEIRQYCNHWRNFADIDDSWKSIKSILDWTSFNQERIVDVAGPGGWNDPDMLVIGNFGLSWNQQVTQMALWAIMAAPLFMSNDLRHISPQAKALLQDKDVIAINQDPLGKQGYQLRQGDNFEVWERPLSGLAWAVAMINRQEIGGPRSYTIAVASLGKGVACNPACFITQLLPVKRKLGFYEWTSRLRSHINPTGTVLLQLENTMQMSKDLQL | ++ (++ = >1.5 to 2.5 relative activity over WT GLA (SEQ ID NO: 5)) | + (+ = 0.5 to 1.5 relative activity over WT GLA (SEQ ID NO: 5)) | +++ (+++ = >2.5 relative activity over WT GLA (SEQ ID NO: 5))
